Data as given in PMC5779621.
Values belong to the molecule of their own block, whether it stands above or below them.

What was measured:
[1] = molecular target: Fibroblast growth factor receptor (human (endogenous in MCF-7)) (UniProt P11362); assay: Western blot of cell lysates for the receptor dimer
purified protein = substrate: CC(=O)N[C@H]1[C@H]([C@H](O)[C@H](O)CO)O[C@](OP(=O)(O)OC[C@H]2O[C@@H](n3ccc(N)nc3=O)[C@H](O)[C@@H]2O)(C(=O)O)C[C@@H]1O; assay: purified protein; settings: donor substrate; acceptor type II LacNAc

- stoichiometry N [1]: 2
Molecule: Fibroblast growth factor receptor (from UniProt P11362 22-822)

B1: recombinant human ST3Gal-IV (α2,3-sialyltransferase) (Homo sapiens) (protein)
chain: REDRYIELFYFPIPEKKEPCLQGEAESKASKLFGNYSRDQPIFLRLEDYFWVKTPSAYELPYGTKGSEDLLLRVLAITSSSIPKNIQSLRCRRCVVVGNGHRLRNSSLGDAINKYDVVIRLNNAPVAGYEGDVGSKTTMRLFYPESAHFDPKVENNPDTLLVLVAFKAMDFHWIETILSDKKRVRKGFWKQPPLIWDVNPKQIRILNPFFMEIAADKLLSLPMQQPRKIKQKPTTGLLAITLALHLCDLVHIAGFGYPDAYNKKQTIHYYEQITLKSMAGSGHNVSQEALAIKRMLEMGAIKNLTSF
- Km (purified protein): 73.4 µM
